Results from the supplement of paper PMC10567573.

B1: PCDHGA10 (parent)
chain: FGIEIEVTDINDNAPKFQAENLDV

Variants of: B1
Test: protein stability index of a GFP-peptide fusion (GPS, HEK-293T) (PSI 1-6); higher = more stable
Conditions: c terminus: a fixed tail appended
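Note: lentivirally expressed fusions sorted by FACS into six bins by GFP to DsRed ratio, PSI derived from sequencing read proportions per bin multiplied by bin number.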

Protein stability index: each site, then its substitutions
I5: M 3.86; E 5.17; S 5.39; L 3.94; Q 4.71; F 3.49; V 3.48; H 4.91; K 4.92; G 5.02; N 5.05
K16: H 2.76; Y 2.18; Q 3.35; F 2.21; E 3.88; L 2.31; M 3.07; V 2.64; W 1.72; C 2.45; I 2.48; T 2.91; R 3.02
I10: S 3.91; V 3.24; Q 4.05; N 4.14; E 4.23; K 4.61; F 2.4; G 3.67; L 2.63; A 3.61; D 4.78; R 3.73; P 3.83; W 2.03
A14: S 3.13; E 3.83; L 1.98; Q 3.58; D 3.89; T 2.9; K 3.1; N 3.35; W 1.67; H 2.79; F 2.35; V 3.4; G 3.08; I 2.49
F1: Y 3.52; N 4.69; I 2.57; P 5.08; C 3.59; K 4.39; H 4.67; T 4.93; M 3.52; W 2.54; Q 4.58; S 4.75; E 4.8; A 4.72; V 2.93
Q18: F 1.68; C 2.44; G 2.94; P 2.41; W 1.93; S 2.1; D 3.56; K 3; Y 1.53; R 2.08; T 2.77; A 2.88; I 2.13; N 3.25
E4: R 2.18; A 2.46; D 3.44; W 2.5; S 2.5; K 2.11; H 2.2; C 2.6; G 3.42; L 2.28; V 2.24
L22: T 3.65; H 3.4; C 3.27; N 3.69; K 4.02; V 3.42; S 4.17; D 4.21; R 3.7; M 2.84; E 4.39; W 2.53; A 3.34; P 3.36; Q 3.71
D23: E 2.59; L 2.17; T 1.95; Y 1.69; I 1.93; H 1.8; G 2.29; S 2.06; P 2.32; N 2.85; Q 2.42; M 2.52; R 1.93
G2: K 1.52; R 1.49; D 2.72; P 4.63; A 2.02; C 2; S 1.92; E 1.88; L 2.17
F17: A 4.12; D 4.36; Q 4.14; L 3.33; W 2.52; T 4.14; N 4.15; K 4.42; R 3.9; P 4.03; E 4.81; V 3.65; H 4.28; S 3.98
N21: K 3.25; R 2.07; H 2.82; G 2.83; P 2.6; Q 2.8; A 2.49; W 1.37; C 2.47; D 3.65; I 1.84; L 2.13
V24: H 3.6; R 3.71; I 2.56; W 2.81; E 3.46; S 3.5; L 3.43; T 3.47; P 3.4; N 3.28; A 3.48; C 2.8; G 3.7
E6: T 1.98; Q 2.39; V 2.04; G 3.56; Y 2.23; S 2.69; A 3.25; R 1.7; F 2.43; M 1.41; C 1.58; P 4.08; K 2.77; D 3.62
I3: W 3.62; D 4.76; Y 3.84; M 3.96; A 4.52; K 4.73; C 4.43; G 4.73; N 4.68; E 5.11; P 4.96; R 4.52; T 4.65; L 4.08; Q 4.79; H 4.88
N13: V 2.27; P 2.83; R 2.67; L 1.91; T 3.1; W 1.54; S 2.48; E 3.35; G 2.99; K 3.12; Q 3.21; I 2.66
P15: E 3.24; N 3.6; G 3.52; K 3.51; H 2.73; V 2.55; Q 3.11; A 3.37; D 3.62; Y 2.23; R 3.36; F 1.84; C 2.5; S 3.14
E20: A 2.15; K 2.08; C 1.61; I 2.72; W 2.11; N 2.27; P 2.13; H 2.02; D 2.82; L 1.33; F 2.51; M 2.06; R 1.83; Y 2.59; G 2.11
A19: Q 3.32; Y 1.95; N 2.82; S 2.62; P 2.6; W 1.59; E 3.83; M 2.53; K 3.37; T 2.84; D 3.56; R 3; H 3.18; C 2.59; V 2.37; F 2.42
N11: A 2.88; C 2.28; V 2.3; W 1.96; P 2.73; F 1.33; L 1.77; Y 1.76; S 2.84; D 3.54; I 2.04; M 2.15; E 2.94; K 2.99; T 2.26; R 2.73; H 2.41
D9: C 1.95; H 1.81; F 2.69; P 2.53; M 1.96; V 2.58; A 1.98; T 1.96; R 2.04; E 2.69; Q 2.15; Y 3.18; N 2.73; G 2.15; I 1.32
D12: V 2.05; C 1.8; M 1.75; L 1.49; W 1.6; G 2.58; P 2.42; Y 1.56; H 2.16; N 2.15; R 2.48; S 2.25; T 1.99; F 1.94; E 3.13; I 1.84; A 2.28
T8: E 3.32; N 3.81; I 1.76; S 2.77; C 2.48; R 2.32; P 3.75; K 3.33; L 1.89; A 2.88; Y 1.17; M 2.19; Q 2.78
V7: F 2.25; W 1.78; N 4.46; T 4.45; M 3.18; I 2.29; G 4.3; H 4.74; Q 4.8; A 4.33; P 4.72; R 4.14; Y 2.93; S 4.63; L 2.45; E 4.74; C 3.75
